From the DeepSol protein solubility set

assay: soluble on expression in E. coli; label from the status in PepcDB or PDB records

Row | Sequence | soluble on expression in E. coli
1 | GMSEPYGKAFSLMRAEAEPAWRAYTHHAFVEGLKAGTLPREAFLHYLQQDYVFLIHFSRAWALAVVKSETHSEMLAAVGTVNALVAEEMQLHIGICEASGISQEALFATRERAENLAYTRFVLEAGYSGDLLDLLAALAPCVMGYGEIGKRLTAEATSTLYGDWIDTYGGDDYQAACKAVGTLLDDALERRLGAEFTSSPRWSRLCQTFHTATELEVGFWQMGLTP | soluble
2 | MALWVDKYRPKDLLGKDGVDYHIEQANHLKFLSADCMPHLLFCGPSGAGKKTRIKCLLRELYGVGVEKTQLIMKSFTSPSNKKLEIQTVSSNYHIEMTPSDVGIYDRVVVQDLVKEMAQTSQIESTSQRSFKVVVLCEADSLTRDAQHGLRRTMEKYANNCKIVLSCESLSRIIEPLQSRCIIINVPAPTDEDVTKVLRKVIERESFLLPENVLQKIVEKSEGNLRRAILMTEALRMENESGVAESVVIPVPEWEIYIQETARLILQKQSSDMLLKVRERLYELLSRCIPPTVIFKKLLEHLLPKCPPQIAREVVSEAAKFEHRLVLGQKAIFHLEGFVAAFMDIYLTNASKPK | not soluble
3 | MMDHAHDSCSPTLRRDLEVTGQLQPEKAVDLAAPHEGKVANITKVTSSNMEHTITQASKAKEVVVLIGHSLLPTFQDLEKDILHFQAGNKGRFSVAIVDPDRSADVVARFRPKQIPVAYVVKDGASIAEFNSLNKEPVAQWLDHFVSRETIPNEKEGDVDKQIDPRLWRAAELVNAGDFRAALALYEQLPQDATVKRAHAAVSVLARMSVADRGEDPIEKSRRDPDDVNKALAAADMYVLMNQPDTALAHLAALLPKPEAARRIVELLNLFDPLDLVALEIRAQVGNAMS | not soluble
4 | MSLTIYGVYRSRATRTLWLAAELGIEFKHVPVIQARRLADPLATDAPLNTLSPAFLAVNPMGTIPCIEDDGMVLYESMAINLYLARKYGGPLAPVDLKEDAAMLQWSFFAATEIETNSLKISSAIAEGLAESDAGKAVIDVAARLLKRPLRVLEQHLATHDYLVGDRFTVADLNVAEIVRYAQGHQPLFDAHPALKAWLARCQARTAFKSMWDSRTAEGHHHHHH | soluble
5 | MGSDKIHHHHHHMGGNRFGQSPVTGGAGVNAVAKRACLDDVQIAFGQGHRVHVARADTAPDLTRAFAQPIHLCTPICPPRTLTTTRHMDNPHGRAIVHAMEQLDADILIVGGGLNGPCLALACAQAGLSSVVLDALPAQTREETGFDGRAYALALASVRMLDALGIWNQVEDHAQPMLEIKASDGRAGEGAAPFFLHFDHAEIEEGPMGHMLEDRYLRRALMAAMEASSLVAHRAASRVLSQDTNGMASVTLDGGEVLRGRLLIGADGKRSGVAERAGIRRMGWDYNQTALVCAVDHDRPHNGIAHQFFMPGGPLAILPLPGNRSSIVWSESEPRASELAAADDDTFMDALRPAFGDFLGNISLTGQRHSYPLSLSLAQAFVAEKLALVGDAAHGVHPIAGQGLNLGLRDVSALAETLADAKRRGEDFARRDVLDRYQQWRRFDTAGLAVATDSVNRLFSNDNPAVRAIRDIGMGAIGALPTLRRRFIREAAGLTGDLPRLMQGRTL | not soluble
6 | MAHHHHHHMEVRRIAPIGRAAVLVMKNVSGNMWAGYSDGAIRVFDHVTQKVLRQSTQHTAAVYAMCAADGYVFTGGADGKVYQWMADDLHYSHMYYGHRNAVRSLTTYTDQKSRCRYVVSGSDDGTVKVWEATVAKTSGTPRKDGGCVSTLDGQGRCVLSILVLEDAAELWAGSEDSVIRVWDLSSMTVTTVITGHRAPVVTLLKVGDTVWSGSKDGAITITNRFSKDIVHQASQPPANRSAAPGGQRSSVSILPVTRTVVYEVWATAVDGSWQCWNFTVPEGVKSYVEEADVLKGGWCPSHSRPQRLSRVGQRSSRNVRSSSVNEYSENGLHSASARARRSDEKLRASVAQTRRTVAVLLAGSKVHQGLGAHNGNGFAHRNEAASVDIVDDDDTPLDIVAESIRNDHTAETQREVQLKQAALAKERRKSAKLRAALEMMCKDPVAIAEEGAKKVFRRTDSLVIAETLAMERQSGKLGSPTTEKLVGVSSQLELLKAQNKAMAAAVTESKKVPD | soluble
7 | MGHHHHHHSHMKNYKAIGKIGEGTFSEVMKMQSLRDGNYYACKQMKQRFESIEQVNNLREIQALRRLNPHPNILMLHEVVFDRKSGSLALICELMDMNIYELIRGRRYPLSEKKIMHYMYQLCKSLDHIHRNGIFHRDVKPENILIKQDVLKLGDFGSCRSVYSKQPYTEYISTRWYRAPECLLTDGFYTYKMDLWSAGCVFYEIASLQPLFPGVNELDQISKIHDVIGTPAQKILTKFKQSRAMNFDFPFKKGSGIPLLTTNLSPQCLSLLHAMVAYDPDERIAAHQALQHPYFQEQRKTEKRAL | not soluble
8 | MRRTRRPRFVLMNKMDDLNLHYRFLNWRRRIREIREVRAFRYQERFKHILVDGDTLSYHGNSGEVGCYVASRPLTKDSNYFEVSIVDSGVRGTIAVGLVPQYYSLDHQPGWLPDSVAYHADDGKLYNGRAKGRQFGSKCNSGDRIGCGIEPVSFDVQTAQIFFTKNGKRVGSTIMPMSPDGLFPAVGMHSLGEEVRLHLNAELGREDDSVMMVDSYEDEWGRLHDVRVCGTLLEYLGKGKSIVDVGLAQARHPLSTRSHYFEVEIVDPGEKCYIALGLARKDYPKNRHPGWSRGSVAYHADDGKIFHGSGVGDPFGPRCYKGDIMGCGIMFPRDYILDSEGDSDDSCDTVILSPTARAVRNVRNVMYLHQEGEEEEEEEEEEEDGEEIEPEHEGRKVVVFFTRNGKIIGKKDAVVPSGGFFPTIGMLSCGEKVKVDLHPLSG | soluble
9 | MGQDTDMLNTYQQLVRTPSVRPGQDVRLQAPGTRTGLLKLLSTVSQDKQGCLGSGDGVPNQDLQQRSQSSRQTAKKDRKPRGQSKKGQGSEESEDHFPLLPRKPSFPFQWAWESIATDVRAVLQPSSPTPGHQALPMPSSFSQRQSRRKSTANLPEAHGCCWKTEAQNLKARQQLGAWGGVSIPTGKGELGSEPPSGLQLPGRRPGSGSASDKQVQLQSLGAEEAERGLSSGVLPQRPRRGSISEEEQFSEATEEAEEGEHRTPCRRRAGCQRKGQISGEEASDEGEVQGQSQGSSPSFNNLRRRQWRKTRAKELQGPWDLEKLHRQLQRDLDCGPQKLPWKTLRAAFQASKRNGKAYASGYDETFVSANLPNRTFHKRQEATRSLLQAWERQRQEERQQAELRRARTQHVQRQVAHCLAAYAPRGSRGPGAAQRKLEELRRQERQRFAEYQAELQGIQHRVQARPFLFQQAMQANARLTVTRRFSQVLSALGLDEEQLLSEAGKVDREGTPRKPRSHRSVGVRMEHSPQRPPRTEPTGSQPDRHYNPSLDPECSP | not soluble
10 | VDVRAIMTPPAHQDGGKHDVDARGPCGLTPLMIAAVRGGGLDTGEDIENNEDSTAQVISDLLAQGAELNATMDKTGETSLHLAARFARADAAKRLLDAGADANCQDNTGRTPLHAAVAADAMGVFQILLRNRATNLNARMHDGTTPLILAARLAIEGMVEDLITADADINAADNSGKTALHWAAAVNNTEAVNILLMHHANRDAQDDKDETPLFLAAREGSYEACKALLDNFANREITDHMDRLPRDVASERLHHDIVRLLDEHVPRSPQMLSMTPQAMIGSPPPGQQQPQLITQPTVISAGNGGNNGNGNASGKQSNQT | soluble
11 | MTALTIKDLRYKHNQRMILQNVQLTLAPSKIVGLLGENGAGKTTLMRLITGSAKGQGSIVINGATTAVARKQQVSFTDHLTGFSAGMKLQQIAQFYQLVYPDFDAKRYQELVDFLELNQQQKLGELSKGTREKLIIALTLSRKVALYLLDEPFSGIDSMSRKKIINSIIKWTPAEATLLISDHYVTEIAPILDEIVVVKDQTIVVHQGADEIRDEHGMELEDYYESLYMGGVTDDK | not soluble
12 | MELFLAGRRVLVTGAGKGIGRGTVQALHATGARVVAVSRTQADLDSLVRECPGIEPVCVDLGDWEATERALGSVGPVDLLVNNAAVALLQPFLEVTKEAFDRSFEVNLRAVIQVSQIVARGLIARGVPGAIVNVSSQCSQRAVTNHSVYCSTKGALDMLTKVMALELGPHKIRVNAVNPTVVMTSMGQATWSDPHKAKTMLNRIPLGKFAEVEHVVNAILFLLSDRSGMTTGSTLPVEGGFWAC | soluble
